doi:10.1101/671792

Biological target: polymerization-deficient p62 PB1 domain D69A/D73A (human) (UniProt Q13501)
Assay: ITC

Kd: 12.6 nM
Substance: human NBR1 PB1 domain, residues 1-85 (ITC) (from UniProt Q14596 1-85) (domain or fragment)
